Results from publication PMC5268738 (2017).
Square brackets hold non-standard residues; d marks the D form. Ends that are not written are not given here. pT = C[C@@H](OP(=O)(O)O)[C@H](N)C(=O)O; pS = N[C@@H](COP(=O)(O)O)C(=O)O

T1: human Mad1^CTD (human, UniProt Q9Y6D9 597-718)
T1 chain: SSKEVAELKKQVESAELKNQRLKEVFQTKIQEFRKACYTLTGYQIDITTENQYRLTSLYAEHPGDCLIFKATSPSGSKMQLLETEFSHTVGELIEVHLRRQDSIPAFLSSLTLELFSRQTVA


Molecular target: T1, human Mad1^CTD
Assay: ITC

Binder	Kd [µM]
CKVQPSP[pT]VHTKEALGFIMNMFQA [human Bub1 CM phospho-peptide pT461]	15.7
CKVQP[pS]P[pT]VHTKEALGFIMNMFQA [human Bub1 CM phospho-peptide pS459-pT461]	3.1
